Laboratory results: the supplement of paper PMC12764529
± gives the half width of the 95% confidence interval.

Legend:
[1] = folding stability dG unfold from chymotrypsin proteolysis; higher = more stable
Method: (§1)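 Folding stability of de novo designed mini-proteins (<80 aa, no Cys; designed by TrROS, TrMRF, ProteinMPNN and the joint model) was measured by cDNA display proteolysis with trypsin and chymotrypsin. Each protease was used at 11 concentrations in a threefold dilution series plus a no-protease condition. K50 was inferred by Bayesian fitting of sequencing counts, and dG unfold was derived against a sequence-predicted unfolded-state K50 (Tsuboyama et al. method). Sequences shown include variable-length N-terminal GS-type padding (SAGGSAGG...) inside a display construct carrying a PA tag. Rows were kept only if the AF2 dimer inter-PAE was >15, to exclude likely homo-oligomers.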

[2] = folding stability dG unfold (combined trypsin and chymotrypsin); higher = more stable
Method: as §1

Sequence	folding stability dG unfold [1]	folding stability dG unfold [2]
SAGGSAGGSMTTLRTRLKGDGTVEIEVYEPGRIRTITLPPSEVDKIPDVEDLPRYELEGDAPESAGGSAGGS [r12_343_JUSTAS]	0.147 ± 0.21 kcal/mol	-0.514 ± 0.22 kcal/mol
SAGGSMLTVDYTVSPDVDLEEALAAVAEEVRAALLAETGGPVAVDVRPVSRPPDGTVRIRVDVALESAGGSA [r2_214_JUSTAS]	0.991 ± 0.028 kcal/mol	0.525 ± 0.12 kcal/mol
SAGGRIKIDIDPHPNEPGQPVMIKIKHPNGEREIPIPPNQSPEELKEAADDLAEENGFPIDDVEIHPSAGGS [r16_753_TrROS]	0.661 ± 0.059 kcal/mol	0.154 ± 0.16 kcal/mol
SAGGSAGGSAGGKTYYVTGKLYLKDKPRVIEVKLPYPSELEEEAPERVKKLAEELAKEESAGGSAGGSAGGS [r10_313_TrMRF]	-0.394 ± 0.38 kcal/mol	< -1 kcal/mol
SAGGSAGGSAGGMSSTVTVTTTPVDPNVGLYRVTTTTYYVDPDGPAHPGTSVSLVNRALSSAGGSAGGSAGG [r11_51_JUSTAS]	-1.34 ± 0.83 kcal/mol	< -1 kcal/mol
SAGGSAGGSAGGSLEEKAEAAYKKNPTTVPVELPLPGGVPATLTVTRTSPDSLDITRTLSAGGSAGGSAGGS [r10_395_JUSTAS]	0.232 ± 0.2 kcal/mol	< -1 kcal/mol
SAGGSASSGSMPLTKETDPLDGAGEVERVLYEDGTVVEIVTGADGKPTLRTRKVEIEPPEPLLLLRSAGGSA [r15_478_JUSTAS]	-0.501 ± 0.63 kcal/mol	< -1 kcal/mol
SAGGGNPPVLKIELTKTYHPPDGTKVELYRVEHPVEPREIYIVKTYPDDGAEEVKIVKEEELKEALKSAGGS [r8_421_JUSTAS]	0.771 ± 0.36 kcal/mol	< -1 kcal/mol
SAGGSRMRILNIDPESNRIRVRHPGKPFTFPVDNIEEVTIDPNDGYLTIKMKGETQTIPLDDPDAFSAGGSA [r2_48_TrROS]	0.575 ± 0.16 kcal/mol	0.0825 ± 0.18 kcal/mol
SAGGSAGGSMKLGGKPIKRVESEPLPGPSRLFYIELEDKKIPVVLEGDKLLVSPELFEWEKEGSAGGSAGGS [r20_92_TrMRF]	0.396 ± 0.22 kcal/mol	-0.0157 ± 0.2 kcal/mol
SAGGSAGGSAGGSMEVVETEEPGPGEERIRIVRFKEKTIVTRTPPDGVPTSEELPISELSAGGSAGGSAGGS [r10_1075_JUSTAS]	0.0261 ± 0.2 kcal/mol	-0.247 ± 0.2 kcal/mol
SAGGSAGGSALLEEAGALAAARGWDVEVSPGPVVTVRSPAGREVTITREGDELTVTERELPGDRSAGGSAGG [r6_523_JUSTAS]	0.466 ± 0.18 kcal/mol	-0.308 ± 0.35 kcal/mol
SAGGSAGGMTVTVEIPLPPDVPIEEVKEKVKESGYPPTKIEYDPATGKATITLSPEAKEFLEKKSAGGSAGG [r6_307_JUSTAS]	-0.425 ± 0.11 kcal/mol	< -1 kcal/mol
SAGGSAGGSAGGMTITKSPEPDLVTVTLPDASGTTVATLTFSPEVVESDPALVAAAAAATSAGGSAGGSAGG [r17_496_JUSTAS]	0.516 ± 0.095 kcal/mol	-0.335 ± 0.39 kcal/mol
SAGGSAGGYRITIKDPDGVKIEIWQGPNGMMPIKVENPNGKKRERMVNGPPGDIEDFLKELLKQSAGGSAGG [r6_27_TrROS]	0.378 ± 0.31 kcal/mol	-0.125 ± 0.59 kcal/mol
SAGGSALPPGQKIKMKFPDDGKKMTITFNPGQNNIEIENDGKKETYPFDSVEDLLDEFGWKVLDIESAGGSA [r15_500_TrROS]	0.465 ± 0.073 kcal/mol	-0.0488 ± 0.19 kcal/mol
SAGGSAGGSAGGGSMILNVRTVVEEDFPINDRRKVTVLDPVVLVPAVAFDPSTGKATPVSAGGSAGGSAGGS [r10_815_JUSTAS]	0.667 ± 0.085 kcal/mol	0.298 ± 0.083 kcal/mol
SAGGSAGGSAGGGKVTVYTDPKGGVVITTTETPDSITATVVDPSGKTTTVTVPPGAPLLSAGGSAGGSAGGS [r10_976_JUSTAS]	0.243 ± 0.18 kcal/mol	-0.183 ± 0.38 kcal/mol
SAGGSAGGSAGGAVERFPGPATVTALPDGRRLVTTTDPSGRPTLTLLEVETPERVTAHPASAGGSAGGSAGG [r7_423_JUSTAS]	0.286 ± 0.038 kcal/mol	-0.663 ± 0.2 kcal/mol
SAGGSAGGSAGGMIDIPISPEIAENVPPGATVEVEILRDDGRIERLKVKVEDFEPVLPGGSAGGSAGGSAGG [r7_732_TrMRF]	0.308 ± 0.044 kcal/mol	0.0628 ± 0.26 kcal/mol
SAGGSAGGSPVRPRTGTVYDPETGARVDVLEYEFPLPDGTPVTVTEVVVTDGDTRTTATLVDPSAGGSAGGS [r12_619_TrMRF]	0.29 ± 0.014 kcal/mol	-0.263 ± 0.073 kcal/mol
SAGGSAGGSAGGSLAPALAAAIAPLLPKDGTFVFVAEPVGDRLVIVTETRPLREDEERGSAGGSAGGSAGGS [r4_350_TrMRF]	0.496 ± 0.047 kcal/mol	-0.707 ± 0.25 kcal/mol
SAGGSAGGSAGGSPFEGPRPVVVKPVSPEILAKTPPEEVKKRLKEELPESVTIVETNPLPSAGGSAGGSAGG [r7_487_JUSTAS]	0.12 ± 0.1 kcal/mol	< -1 kcal/mol
SAGGSAGGSAGAVTVTLTGGPTLEIPIPDVPPEELGTPEVVARIEAIAAARGLTIASIRLSAGGSAGGSAGG [r11_467_JUSTAS]	-0.14 ± 0.14 kcal/mol	< -1 kcal/mol

Sequence	folding stability dG unfold [1]	folding stability dG unfold [2]
SAGGMMRTVTEPLSPEELEELRKEGWTVLGTEPGKVTVRVPVVPPLSPEEVAQARAAGLSEAEAAAARSAGG [r19_115_JUSTAS]	0.587 ± 0.14 kcal/mol	0.0214 ± 0.28 kcal/mol
SAGGSAGGSGYPGLPMPVLRVRFAGDPEPVFIPVPADRPDVARAAAEELRALRPDVPVELELGSAGGSAGGS [r12_601_TrMRF]	0.823 ± 0.045 kcal/mol	0.107 ± 0.057 kcal/mol
SAGGSASMKTTTVTLPLDPAQLAEAIAALREAVAPDEAAEVTFVHPHAPTSLTVTISRSDVTLNAASAGGSA [r15_257_JUSTAS]	0.706 ± 0.074 kcal/mol	-0.17 ± 0.11 kcal/mol
SAGGNRIPIPVKEIANNLNEEGWEIDEVEIYNPDDGEPKGTIPPGDPIEIPPNAPNMTIKPKIKPRKSAGGS [r8_243_TrROS]	0.0841 ± 0.064 kcal/mol	-0.169 ± 0.13 kcal/mol
SAGGGMPVPEVEVELLEEREVPGGRVTLGRAKTPDAWETLTTEYDPATGRRRTWRETPEGVTPYAEEGSAGG [r13_445_JUSTAS]	-0.567 ± 0.65 kcal/mol	< -1 kcal/mol
SAGGSAPKRLRIKFKDPDGKTQKIKIPPGIKSINIQPNNDYVSLMIHNPEDGQSRMLPPMRVDEITSAGGSA [r15_133_TrROS]	-0.899 ± 0.48 kcal/mol	< -1 kcal/mol
SAGGPNMRTVTIEIPPENLKKDPDGEPYSAQDIAKHIAKHLPPDNVEIEIDKIDPDNGWFKVTIIVPSAGGS [r16_284_TrROS]	-0.0083 ± 0.2 kcal/mol	-0.514 ± 0.44 kcal/mol
SAGGSAKIEIEWNPENGMVRVKAEYPNDGKKKEHTFNPGDSPKQLADDINQEFKKPVEIDEIEWYPSAGGSA [r15_544_TrROS]	0.683 ± 0.04 kcal/mol	0.153 ± 0.44 kcal/mol
SAGGMKVTPLGTEPRPDGTTTTTYLSTLPNGTPVTTTTTTSTIPPPPVPPFSPEEVAAAAARRAAAASAGGS [r16_8_JUSTAS]	0.249 ± 0.21 kcal/mol	< -1 kcal/mol
SAGGSAGGSADEFVVVADLPEGGEARLLVLPLPDGSYLVAEAEAERHGDRTVLHVKVTPAESAGGSAGGSAG [r3_281_TrMRF]	0.595 ± 0.11 kcal/mol	-0.0917 ± 0.14 kcal/mol
SAGSHEAWFPIPELLNDPGLEDAWIRVTVHPTPNGNIDIDIEPEPVPKPKITPEEMQEQMEENNKQMKSAGG [r19_313_TrROS]	-0.435 ± 0.064 kcal/mol	< -1 kcal/mol
SAGGSAGGSAGGSSVSVSFDPATGTRTVTYTTLDPSNGKILSSTTSTTAVALAATPAAASAGGSAGGSAGGS [r10_842_JUSTAS]	0.661 ± 0.058 kcal/mol	-0.288 ± 0.17 kcal/mol
SAGGPIVTSEVVETRPLPDGSTLVTVKTTKLLPLPVETTAPDGTVSPVPPGTPPVTVTETHLVVLEPSAGGS [r16_693_JUSTAS]	0.684 ± 0.055 kcal/mol	0.0694 ± 0.22 kcal/mol
SAGGSAGGSAPKFDLRPEVFPLEDDSFLFVSRLLDPDKRLLTLVKVPPNGGLELGDVLLLDSAGGSAGGSAG [r3_165_TrMRF]	-0.176 ± 0.3 kcal/mol	-0.829 ± 0.33 kcal/mol
SAGGSAGGSAGGSHIQFDPEGRWKIRNRDNNNTREFPADDLPKLPPDFDIPKGARIEPYSAGGSAGGSAGGS [r4_91_TrROS]	-0.134 ± 0.25 kcal/mol	-0.518 ± 0.19 kcal/mol
SAGGSAGGSAGMVIELPVPGTMSPEEARARAEEVAEELARRTGRPVEVREVRLVTPEELASAGGSAGGSAGG [r17_68_JUSTAS]	-0.364 ± 0.086 kcal/mol	-0.733 ± 0.4 kcal/mol
SAGGSAMVIDSKEVLEDDVLVTTTAITVDPSTGIKTEDVEEKPVPLPDGTPLPPRKTTRTTPLANASAGGSA [r15_623_JUSTAS]	0.784 ± 0.025 kcal/mol	0.175 ± 0.13 kcal/mol
SAGGMPLSTESFVQESSGDGTPFTTTKTTYRDVNGNPLVTPVSTVDPVAGTTTTTVTVDGTPVTTTTPSAGG [r13_948_JUSTAS]	-0.386 ± 0.2 kcal/mol	-0.701 ± 0.17 kcal/mol
SAGGSAGGSAGGGMITFSSESVEEFGSVTPVNVVRRVTRYTTKVGDTIIETTEEEVVPLESAGGSAGGSAGG [r7_248_JUSTAS]	-0.049 ± 0.4 kcal/mol	-0.368 ± 0.28 kcal/mol
SAGGSKEEIEKKLKELAEKLGVEVEDIEIKPLSNGKYIAVVKFKDNPNVYAVYEFDGDEIKIVEIKPSAGGS [r8_432_TrMRF]	5.04 ± 0.26 kcal/mol	5.15 ± 0.57 kcal/mol
SAGGSMKIVKKSEDPSPPVETIEVDPNLDIEKIINELKNQPNVKVDKSTDPNSSKKTITITRPVDGSAGGSA [r2_44_JUSTAS]	0.0999 ± 0.058 kcal/mol	-0.224 ± 0.086 kcal/mol
SAGGSAGGSAGYKPDPDGQYTQEMRLPREPPRIRITIPMSPNDPDKAQKFINNLAEEFGISAGGSAGGSAGG [r17_501_TrROS]	-0.0614 ± 0.64 kcal/mol	-0.32 ± 0.32 kcal/mol
SADPADVDVPLPVVGTAPALTSAPPGARLELVRLPDLGALARVDDGSVVALTVVVNDDGEVLAVAVEPAPSA [r9_1195_TrMRF]	0.894 ± 0.028 kcal/mol	0.252 ± 0.066 kcal/mol
